How the values were obtained:
[1] = target: the molecule itself; test: SEC; holo-HypCS-D after Strep-Tactin affinity chromatography, Superdex 200 Increase 10/300 GL; oligomers separated from the HypCD complex
[2] = target: T1, HypD from Escherichia coli (Escherichia coli, UniProt P24192 1-373); test: pull-down; Strep-Tactin affinity chromatography by the Strep-tag II on HypC from soluble extracts of aerobically cultivated E. coli co-producing HypC_(Strep) and HypD (apo: pTHypDC_(Strep); holo: pTHypDEFC_(Strep)); 4 °C; SDS-PAGE of the isolated complexes; conditions: partners not purified
T1 construct: HypD, [4Fe-4S] cluster-containing hydrogenase maturation factor, Escherichia coli; Carries a [4Fe-4S] cluster; No tag is named for HypD in the complexes; also called EcHypD; HypD part of HypCS-D and HypCH-D
T1 sequence (looked up): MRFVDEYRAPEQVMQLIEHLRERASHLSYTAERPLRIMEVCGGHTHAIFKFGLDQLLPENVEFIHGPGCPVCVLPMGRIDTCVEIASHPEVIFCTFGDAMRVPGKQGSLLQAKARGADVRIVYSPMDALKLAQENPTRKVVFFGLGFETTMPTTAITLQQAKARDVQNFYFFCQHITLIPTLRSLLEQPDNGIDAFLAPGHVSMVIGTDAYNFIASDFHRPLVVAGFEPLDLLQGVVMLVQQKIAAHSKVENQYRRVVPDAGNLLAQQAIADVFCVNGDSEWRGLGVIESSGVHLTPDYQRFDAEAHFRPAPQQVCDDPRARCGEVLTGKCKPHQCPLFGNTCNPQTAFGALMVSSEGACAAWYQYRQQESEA

- binding result [2]: binds
B1: HypC_(Strep) (HypC from Escherichia coli with Strep-tag II C-terminally fused) (natural protein, UniProt P0AAM3 1-90, looked up)
chain: MCIGVPGQIRTIDGNQAKVDVCGIQRDVDLTLVGSCDENGQPRVGQWVLVHVGFAMSVINEAEARDTLDALQNMFDVEPDVGALLYGEEK
notes: HypC, hydrogenase maturation factor, Escherichia coli; residue numbers count with Met1 as 1; also called EcHypC; HypC part of apo-HypCS-D and holo-HypCS-D; source: holo form additionally by size-exclusion chromatography; not shown: Strep-tag II, C-terminal, kept
- binding result [1]: binds

— article PMC11565642, “ATP-Triggered Fe(CN)2CO Synthon Transfer from the Maturase HypCD to the Active Site of Apo-[NiFe]-Hydrogenase” (Journal of the American Chemical Society, 2024)
